For assay [1], the target named is SARS-CoV-2 wild-type receptor-binding domain (WT-RBD) (SARS-CoV-2, UniProt P0DTC2 319-541). In words: ELISA.
In assay [2] the target is SARS-CoV-2 wild-type spike S1 subunit (WT-S1) (SARS-CoV-2). Nature of the assay: ELISA.

B1: D2, recombinant human immunoglobulin G1 (IgG1) (antibody, V domains shown)
VH: EVQLVESGGGLVQPGRSLTLSCGASGFTFEDYAMHWVRQAPGKGLEWVSGIDWNSGVIGYADSVKGRFIISRDNAKNSLYLHMRSLTAEDTALYYCAKDVYSESGSGSYYDYWGQGTLVTVSS
VL: QSVLTQPPSVSAAPGQKVAISCSGSTSNIGDNFVSWYQQFPGTAPKLLLYDDARRPSGIPDRFSGSKSGTSATLGITGLQTGDEAVYFCSTWDNSLNVVLFGGGTKLTVL
As for B1, the EC50 amounted to 4.41 ng/mL in assay [1] and 3.53 ng/mL in assay [2].

B2: F61, recombinant human immunoglobulin G1 (IgG1) (antibody, V domains shown)
VH: EVQLVESGGGLVQPGGSLRLSCEASEIIVNRNYMNWVRQAPGKGLEWVSIIYPGGSTFYADSVKGRFTISRDNSKNTMYLQMNSLRAEDTAVYYCARSYGDFYVDFWGQGTLVTVSS
VL: QSVLTQPPSVSAAPGQKVTISCSGSSSNIGNNYVSWYQQLPGTAPKLLIYDNNKRPSGIPDRFSGSKSGTSATLGITGLQTGDEADYYCGTWDSSLSAWVFGGGTKLTVL
With B2, the EC50 was determined as 3.01 ng/mL in assay [1] and 3.12 ng/mL in assay [2].

(Values after publication PMC9453709 (2022).)
